Here are results for one molecule from patent US20220305066A1.

In this assay the target is EpCAM (epithelial cell adhesion molecule) on cells (UniProt P16422). In words: cell-based or functional assay.
Chain of UniProt P16422 (P16422 24-314 limits assumed): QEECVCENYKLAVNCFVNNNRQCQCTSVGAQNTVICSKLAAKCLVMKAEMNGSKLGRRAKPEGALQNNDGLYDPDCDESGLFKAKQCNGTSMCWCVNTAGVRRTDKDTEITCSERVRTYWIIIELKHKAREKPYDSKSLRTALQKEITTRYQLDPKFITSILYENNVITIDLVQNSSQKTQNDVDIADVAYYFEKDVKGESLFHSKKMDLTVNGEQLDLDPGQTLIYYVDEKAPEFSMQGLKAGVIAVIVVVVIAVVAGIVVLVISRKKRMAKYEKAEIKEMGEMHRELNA

B1: EpCAMscFv-HveA adapter (fused protein of scFv for EpCAM and HveA82 extracellular domain of HVEM) (protein)
chain: DIQMTQSPSSLSASVGDRVTITCRSTKSLLHSNGITYLYWYQQKPGKAPKLLIYQMSNLASGVPSRFSSSGSGTDFTLTISSLQPEDFATYYCAQNLEIPRTFGQGTKVELKRATPSHNSHQVPSAGGPTANSGTSGSEVQLVQSGPGLVQPGGSVRISCAASGYTFTNYGMNWVKQAPGKGLEWMGWINTYTGESTYADSFKGRFTFSLDTSASAAYLQINSLRAEDTAVYYCARFAIKGDYWGQGTLLTVSSGGGGSEFLPSCKEDEYPVGSECCPKCSPGYRVKEACGELTGTVCEPCPPGTYIAHLNGLSKCLQCQMCDPAMGLRASRNCSRTENAVCGHHHHHH
In turn, B1 showed a cell viability of BT-474 cells 5 days after infection with EADa-S virus of 34%, a cell viability of MCF-7 cells 5 days after infection with EADa-S virus of 31% and a cell viability of MDA-MB-453 cells 5 days after infection with EADa-S virus of 19%.
